Experimental data as given in patent US20210139548A1 (published 2021).
*1 amine or outer side, *2 acyl side, *3 side chain or, on linkers, in order; H or OH if unused. Side-chain parts run from the residue outwards. The star is where a group is joined. C18 diacid = O=C(O)CCCCCCCCCCCCCCCCC(=O)*; γGlu = O=C(O)[C@H](CCC(=O)[*:2])N[*:1]; Isovaleryl = CC(C)CC(=O)*; AEEA = NCCOCCOCC(=O)O

T1: human neuropeptide Y2 receptor (human, UniProt P49146 1-381)
T1 construct: whole, on cells; also called hNPY2 receptor; hNPY2-R
T1 sequence (looked up): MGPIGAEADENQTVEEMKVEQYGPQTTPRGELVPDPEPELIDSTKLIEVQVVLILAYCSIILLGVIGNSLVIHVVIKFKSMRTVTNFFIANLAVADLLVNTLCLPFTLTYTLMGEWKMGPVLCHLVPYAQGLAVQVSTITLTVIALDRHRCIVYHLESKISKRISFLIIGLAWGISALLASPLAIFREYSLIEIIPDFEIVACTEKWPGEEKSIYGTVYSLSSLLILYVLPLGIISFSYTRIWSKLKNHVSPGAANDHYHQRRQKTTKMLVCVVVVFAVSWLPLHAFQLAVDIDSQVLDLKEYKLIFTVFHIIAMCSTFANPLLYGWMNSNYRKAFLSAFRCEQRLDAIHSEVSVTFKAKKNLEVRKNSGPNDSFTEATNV

B1: Compound 229 (peptide)
peptide: Isovaleryl-APEK([AEEA-AEEA-γGlu-C18 diacid])PEEDASPEELQRYYVSARHYYNWLTRQRY-NH2
SMILES: CC(C)CC(=O)N[C@@H](C)C(=O)N1CCC[C@H]1C(=O)N[C@@H](CCC(=O)O)C(=O)N[C@@H](CCCCNC(=O)COCCOCCNC(=O)COCCOCCNC(=O)CC[C@H](NC(=O)CCCCCCCCCCCCCCCCC(=O)O)C(=O)O)C(=O)N1CCC[C@H]1C(=O)N[C@@H](CCC(=O)O)C(=O)N[C@@H](CCC(=O)O)C(=O)N[C@@H](CC(=O)O)C(=O)N[C@@H](C)C(=O)N[C@@H](CO)C(=O)N1CCC[C@H]1C(=O)N[C@@H](CCC(=O)O)C(=O)N[C@@H](CCC(=O)O)C(=O)N[C@@H](CC(C)C)C(=O)N[C@@H](CCC(N)=O)C(=O)N[C@@H](CCCNC(=N)N)C(=O)N[C@@H](Cc1ccc(O)cc1)C(=O)N[C@@H](Cc1ccc(O)cc1)C(=O)N[C@H](C(=O)N[C@@H](CO)C(=O)N[C@@H](C)C(=O)N[C@@H](CCCNC(=N)N)C(=O)N[C@@H](Cc1c[nH]cn1)C(=O)N[C@@H](Cc1ccc(O)cc1)C(=O)N[C@@H](Cc1ccc(O)cc1)C(=O)N[C@@H](CC(N)=O)C(=O)N[C@@H](Cc1c[nH]c2ccccc12)C(=O)N[C@@H](CC(C)C)C(=O)N[C@H](C(=O)N[C@@H](CCCNC(=N)N)C(=O)N[C@@H](CCC(N)=O)C(=O)N[C@@H](CCCNC(=N)N)C(=O)N[C@@H](Cc1ccc(O)cc1)C(N)=O)[C@@H](C)O)C(C)C
B2: Compound 232 (peptide)
peptide: Isovaleryl-APAK([AEEA-AEEA-γGlu-C18 diacid])PPEDASPEELQRYYVELRHYYNWLTRQRY-NH2
SMILES: CC(C)CC(=O)N[C@@H](C)C(=O)N1CCC[C@H]1C(=O)N[C@@H](C)C(=O)N[C@@H](CCCCNC(=O)COCCOCCNC(=O)COCCOCCNC(=O)CC[C@H](NC(=O)CCCCCCCCCCCCCCCCC(=O)O)C(=O)O)C(=O)N1CCC[C@H]1C(=O)N1CCC[C@H]1C(=O)N[C@@H](CCC(=O)O)C(=O)N[C@@H](CC(=O)O)C(=O)N[C@@H](C)C(=O)N[C@@H](CO)C(=O)N1CCC[C@H]1C(=O)N[C@@H](CCC(=O)O)C(=O)N[C@@H](CCC(=O)O)C(=O)N[C@@H](CC(C)C)C(=O)N[C@@H](CCC(N)=O)C(=O)N[C@@H](CCCNC(=N)N)C(=O)N[C@@H](Cc1ccc(O)cc1)C(=O)N[C@@H](Cc1ccc(O)cc1)C(=O)N[C@H](C(=O)N[C@@H](CCC(=O)O)C(=O)N[C@@H](CC(C)C)C(=O)N[C@@H](CCCNC(=N)N)C(=O)N[C@@H](Cc1c[nH]cn1)C(=O)N[C@@H](Cc1ccc(O)cc1)C(=O)N[C@@H](Cc1ccc(O)cc1)C(=O)N[C@@H](CC(N)=O)C(=O)N[C@@H](Cc1c[nH]c2ccccc12)C(=O)N[C@@H](CC(C)C)C(=O)N[C@H](C(=O)N[C@@H](CCCNC(=N)N)C(=O)N[C@@H](CCC(N)=O)C(=O)N[C@@H](CCCNC(=N)N)C(=O)N[C@@H](Cc1ccc(O)cc1)C(N)=O)[C@@H](C)O)C(C)C

Target: T1, human neuropeptide Y2 receptor
Assay: radioligand competition (125I-PYY(1-36)), hNPY2R membranes
Outline: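 Commercial human Y2 receptor membranes (0.5 μg protein/well) were incubated with peptide for 2 h at room temperature in 50 mM HEPES, 5 mM MgCl₂, 1 mM CaCl₂, pH 7.4, with 0.2% ovalbumin. Bound radioligand was separated on PEI-soaked GF/C filters and counted by scintillation, and IC₅₀ came from nonlinear sigmoidal regression.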

| Binder | Ki [nM] |
| --- | --- |
| B1 | 2.84 |
| B2 | 0.81 |
